Measurements reported in US20090081200A1.

How the values were obtained:
[1] = molecular target: full-length human tissue factor with C-terminal RGS-His6 tag, stably expressed on CHO-K1 cells (human) (UniProt P13726); experiment: flow cytometry (FACScan) on stable CHO clone #TF48 expressing full-length hTF; first antibody 10 µg/ml, FITC-labeled goat anti-mouse IgG 1:50
[2] = molecular target: full-length human tissue factor with C-terminal RGS-His6 tag, stably expressed on CHO-K1 cells (human) (UniProt P13726); experiment: flow cytometry (FACScan) on stable CHO clone #TF34 expressing full-length hTF; first antibody 10 µg/ml, FITC-labeled goat anti-mouse IgG 1:50

Chain of full-length human tissue factor with C-terminal RGS-His6 tag, stably expressed on CHO-K1 cells (human) (P13726 other isoform, or with tags, fused parts or gaps): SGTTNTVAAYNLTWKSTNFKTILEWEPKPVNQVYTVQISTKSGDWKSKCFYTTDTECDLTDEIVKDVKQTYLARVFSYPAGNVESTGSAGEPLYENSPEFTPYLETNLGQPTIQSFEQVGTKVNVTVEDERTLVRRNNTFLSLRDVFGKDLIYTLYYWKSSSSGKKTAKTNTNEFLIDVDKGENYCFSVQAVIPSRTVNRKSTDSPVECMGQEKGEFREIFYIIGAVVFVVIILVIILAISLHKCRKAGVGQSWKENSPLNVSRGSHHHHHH

% Total in marker M1 (negative gate) [1]: 0.99% | % Total in marker M2 (positive gate) [1]: 98.9% | Geo Mean (FL1-H), marker All [1]: 168 | Geo Mean (FL1-H), marker M1 [1]: 7.54 | Geo Mean (FL1-H), marker M2 [1]: 174 | % Total in marker M1 (negative gate) [2]: 0.42% | % Total in marker M2 (positive gate) [2]: 99.4% | Geo Mean (FL1-H), marker All [2]: 262 | Geo Mean (FL1-H), marker M1 [2]: 8.16 | Geo Mean (FL1-H), marker M2 [2]: 267
Substance: mouse anti-human TF mAb (Calbiochem, Cat. # 612161) (antibody)
